Measurements as given in publication PMC8440498.

Target: Aβ1-40 (human)
Experiment: ELISA

Substance “clusterin (human plasma apolipoprotein J) (from UniProt P10909 23-227; P10909 228-449) (natural protein)” has a Kd of 2 nM.
